Among the data in patent US20220267443A1 are Kd values, retold here.

The assay has as its target CTLA-4-Ig. As to the kind of experiment: -; modified from Xu et al., JI 2012.

As for CD80-Fc-His, the dissociation constant (Kd) amounted to 0.3 nM.
Next, CD86-Fc-His: 3.6 nM.
